From article PMC6160459 (Scientific Reports, 2018)

Target: T1, α4 integrin (CD49d) on JeKo-1 cells (Homo sapiens, endogenous on JeKo-1 cells, UniProt P13612)
T1 construct: integrin alpha-4 (CD49d); also called α4 chain of α4β1 integrin (VLA-4) and α4β7 integrin (LPAM-1); source: endogenous, on JeKo-1 cells
Assay: flow cytometry on cells; Ntz-01 premixed with natalizumab 1 h on ice in 5% FBS/DPBS/0.05% NaN3, then CD49d+ JeKo-1 cells 20 m on ice; cell-bound natalizumab detected with anti-human IgG4 Fc Alexa Fluor 647
Settings: one partner purified

binding result: binds
B1: Natalizumab (antibody, V domains shown)
VH: QVQLVQSGAEVKKPGASVKVSCKASGFNIKDTYIHWVRQAPGQRLEWMGRIDPANGYTKYDPKFQGRVTITADTSASTAYMELSSLRSEDTAVYYCAREGYYGNYGVYAMDYWGQGTLVTVSS
VL: DIQMTQSPSSLSASVGDRVTITCKTSQDINKYMAWYQQTPGKAPRLLIHYTSALQPGIPSRFSGSGSGRDYTFTISSLQPEDIATYYCLQYDNLWTFGQGTKVEIK
notes: humanized heavy-chain variable region; light chain; IgG4; also called Tysabri; source: obtained from the UCSD Moores Cancer Center Pharmacy
